Data from patent US12606635B2, “Glypican-2-binding moieties, chimeric antigen receptors and uses thereof” (Nanjing Legend Biotech Co., Ltd., priority 2020, dated 2026).

B1: CAS77986-BBz: camel VHH anti-GPC2 CAR (4-1BB, CD3ζ), SEQ ID NO: 211; tested as CAR T cells (protein)
chain: MALPVTALLLPLALLLHAARPQVQLVESGGGSVQAGGSLRLSCAASASGYTYSSDSMAWFRQAPGKEREGVAGISTGGRSTYYADSVKGRFTISQDNAKTTVYLHMNSLKPEDTAMYYCAADGPSMTAIQALGDLYPVDFAWWGQGTQVTVSSTTTPAPRPPTPAPTIASQPLSLRPEACRPAAGGAVHTRGLDFACDIYIWAPLAGTCGVLLLSLVITLYCKRGRKKLLYIFKQPFMRPVQTTQEEDGCSCRFPEEEEGGCELRVKFSRSADAPAYKQGQNQLYNELNLGRREEYDVLDKRRGRDPEMGGKPRRKNPQEGLYNELQKDKMAEAYSEIGMKGERRRGKGHDGLYQGLSTATKDTYDALHMQALPPR
modifications: expressed in CAR T cells; CAS77986-BBz
B2: GPC2-CD2z: SEQ ID NO:251, GPC2 CAR T comprised CD2 and CD3 ζ intracellular signaling domains (protein)
chain: MALPVTALLLPLALLLHAARPEVQLVESGGGLVQPGGSLRLSCAISEFTYKNTCVGWFRQAPGKGREGVAAIDSDGNTNYVDSVKGRFTISQDNSKNTVYLQMNSLRAEDTAMYYCAAGAYCGRLLLWIGNYAYWGQGTLVTVSSTTTPAPRPPTPAPTIASQPLSLRPEACRPAAGGAVHTRGLDFACDIYLIIGICGGGSLLMVFVALLVFYITKRKKQRSRRNDEELETRAHRVATEERGRKPHQIPASTPQNPATSQHPPPPPGHRSQAPSHRPPPPGHRVQHQPQKRPPAPSGTQVHQQKGPPLPRPRVQPKPPHGAAENSLSPSSNRVKFSRSADAPAYKQGQNQLYNELNLGRREEYDVLDKRRGRDPEMGGKPRRKNPQEGLYNELQKDKMAEAYSEIGMKGERRRGKGHDGLYQGLSTATKDTYDALHMQALPPR
modifications: expressed in CAR T cells; GPC2-CD2z
B3: GPC2-CD27z: SEQ ID NO: 249, GPC2 CAR T comprised CD27 and CD3 ζ intracellular signaling domains (protein)
chain: MALPVTALLLPLALLLHAARPEVQLVESGGGLVQPGGSLRLSCAISEFTYKNTCVGWFRQAPGKGREGVAAIDSDGNTNYVDSVKGRFTISQDNSKNTVYLQMNSLRAEDTAMYYCAAGAYCGRLLLWIGNYAYWGQGTLVTVSSTTTPAPRPPTPAPTIASQPLSLRPEACRPAAGGAVHTRGLDFACDILVIFSGMFLVFTLAGALFLHQRRKYRSNKGESPVEPAEPCHYSCPREEEGSTIPIQEDYRKPEPACSPRVKFSRSADAPAYKQGQNQLYNELNLGRREEYDVLDKRRGRDPEMGGKPRRKNPQEGLYNELQKDKMAEAYSEIGMKGERRRGKGHDGLYQGLSTATKDTYDALHMQALPPR
modifications: expressed in CAR T cells; GPC2-CD27z
B4: GPC2-OX40z: SEQ ID NO:252, GPC2 CAR T comprised OX40 and CD3 ζ intracellular signaling domains (protein)
chain: MALPVTALLLPLALLLHAARPEVQLVESGGGLVQPGGSLRLSCAISEFTYKNTCVGWFRQAPGKGREGVAAIDSDGNTNYVDSVKGRFTISQDNSKNTVYLQMNSLRAEDTAMYYCAAGAYCGRLLLWIGNYAYWGQGTLVTVSSTTTPAPRPPTPAPTIASQPLSLRPEACRPAAGGAVHTRGLDFACDVAAILGLGLVLGLLGPLAILLALYLLRRDQRLPPDAHKPPGGGSFRTPIQEEQADAHSTLAKIRVKFSRSADAPAYKQGQNQLYNELNLGRREEYDVLDKRRGRDPEMGGKPRRKNPQEGLYNELQKDKMAEAYSEIGMKGERRRGKGHDGLYQGLSTATKDTYDALHMQALPPR
modifications: expressed in CAR T cells; GPC2-OX40z
B5: CAS79101-BBz: camel VHH anti-GPC2 CAR (4-1BB, CD3ζ), SEQ ID NO: 215; tested as CAR T cells (protein)
chain: MALPVTALLLPLALLLHAARPQVQLVESGGGSVQAGGSLRLSCAASGDTYSNYCMGWFRQAPGKEREEVAAIDSDGSRRYPDSVKGRFTISKDNAKKILYLQMNSLKPEDTAMYFCATDPKVACARVVEYGGGWYRWGQGTQVTVSSTTTPAPRPPTPAPTIASQPLSLRPEACRPAAGGAVHTRGLDFACDIYIWAPLAGTCGVLLLSLVITLYCKRGRKKLLYIFKQPFMRPVQTTQEEDGCSCRFPEEEEGGCELRVKFSRSADAPAYKQGQNQLYNELNLGRREEYDVLDKRRGRDPEMGGKPRRKNPQEGLYNELQKDKMAEAYSEIGMKGERRRGKGHDGLYQGLSTATKDTYDALHMQALPPR
modifications: expressed in CAR T cells; CAS79101-BBz
B6: GPC2-ICOSz: SEQ ID NO:250, GPC2 CAR T comprised ICOS and CD3 ζ intracellular signaling domains (protein)
chain: MALPVTALLLPLALLLHAARPEVQLVESGGGLVQPGGSLRLSCAISEFTYKNTCVGWFRQAPGKGREGVAAIDSDGNTNYVDSVKGRFTISQDNSKNTVYLQMNSLRAEDTAMYYCAAGAYCGRLLLWIGNYAYWGQGTLVTVSSTTTPAPRPPTPAPTIASQPLSLRPEACRPAAGGAVHTRGLDFACDFWLPIGCAAFVVVCILGCILICWLTKKKYSSSVHDPNGEYMFMRAVNTAKKSRLTDVTLRVKFSRSADAPAYKQGQNQLYNELNLGRREEYDVLDKRRGRDPEMGGKPRRKNPQEGLYNELQKDKMAEAYSEIGMKGERRRGKGHDGLYQGLSTATKDTYDALHMQALPPR
modifications: expressed in CAR T cells; GPC2-ICOSz
B7: CAS79236-BBz: camel VHH anti-GPC2 CAR (4-1BB, CD3ζ), SEQ ID NO: 216; tested as CAR T cells (protein)
chain: MALPVTALLLPLALLLHAARPQVKLVESGGGSVQAGGSLRLSCAVSGYTYSSYCMAWFRQAPGEEREGVASIDAGGRTTYVDSVKGRFTISKDNAKTSLYLQMNSLKPEDTAMYYCAVDVRTRCGGTWDGEAVYFPYWGQGTQVTVSSTTTPAPRPPTPAPTIASQPLSLRPEACRPAAGGAVHTRGLDFACDIYIWAPLAGTCGVLLLSLVITLYCKRGRKKLLYIFKQPFMRPVQTTQEEDGCSCRFPEEEEGGCELRVKFSRSADAPAYKQGQNQLYNELNLGRREEYDVLDKRRGRDPEMGGKPRRKNPQEGLYNELQKDKMAEAYSEIGMKGERRRGKGHDGLYQGLSTATKDTYDALHMQALPPR
modifications: expressed in CAR T cells; CAS79236-BBz

What was measured:
[1] = test system: human neuroblastoma cell line SH-SY5Y; assay: In vitro cytotoxicity assay (LDH), SH-SY5Y; type: cell-based; details: second group, FIG. 6C
Procedure: The pre-activated T cells were transduced with lentivirus stock in the presence of […] polybrene and 300 IU/mL IL-2. T cells and lentivirus were centrifuged at 1000 g, 32° C. for 1 h and placed in humidified cell culture incubator for transgene expression under suitable conditions. On day 5 or day 7 or day 10 post-transduction, transduced T cells were harvested and co-incubated with tumor cells at an effector (CAR T) to target cell ratio of 10:1 or 5:1 or 2:1 or 1:1 or 0.2:1 for 20 hours. Target cells were human neuroblastoma cell line SH-SY5Y (ATCC, #CRL-2266), human neuroblastoma cell line IMR-32 cells (ATCC, #CCL-127), or human epidermoid carcinoma cell line A-431 (ATCC, #CRL-1555). To assay the cytotoxicity of CAR T cells on tumor cells, the Cytotoxicity Detection Kit (LDH) (Roche, #11644793001) assay reagents were prepared according to manufacturer's protocol. Reaction mix was added to the cell-free supernatant of each sample to detect the LDH released from cells. Optical densities at OD492 nm and OD650 nm were measured by PHERStar Microplate Reader. Baseline LDH released from the target cell in the absence of effector cells and effector cell in the absence of target cells were subtracted from the total LDH amount. The target maximum release was obtained by adding Triton-X100 at a final concentration of 1% to target cells in the absence of effector cells at the time when the cytotoxicity assays initiated. Supernatant from target cells in the absence of effector cells was used for target minimum release. The specific cytotoxicity was calculated by the formula: % Target cell lysis=100*[(OD CAR T cell+Target cell)−(OD CAR T cell)−(OD Target cell)+(OD Buffer background)]/(OD Target Maximum release−OD Target Minimum release).
On day 5 or day 8 or day 10 post-transduction, transduced T cells were harvested and co-incubated with tumor cells at an effector (CAR T) to target cell ratio of 10:1 or 1:1 or 0.2:1 for 20 hours. To assay the cytotoxicity of CAR T cells on tumor cells, the Cytotoxicity Detection Kit (LDH) (Roche, #11644793001) was added to the culture supernatant and the specific cytotoxicity for each CAR T cell construct was measured as described in Example 6.

[2] = test system: SH-SY5Y; assay: Serial challenge assay, CAR Ts with different co-stimulatory domains; type: cell-based, human; details: serial SH-SY5Y challenge, FIG. 14B
Description: To evaluate the persistence of GPC2 CAR T cells, exemplary CAR T cells were selected and tested in the serial challenge assay. Briefly, 4×10^5 SH-SY5Y cells and 1.33×10^5 CART cells transduced with GPC2-BBz, GPC2-CD28z, GPC2-CD27z, GPC2-CD2z, GPC2-ICOSz or GPC2-OX40z lentiviral vectors were co-cultured in 12 well plates using fresh growth medium without IL-2 (E:T ratio=1:3). Cells were harvested after three days co-culture and samples were taken for cell counting using AOPI and T cell quantified by FACs. CAR T cells were replated with fresh SH-SY5Y cells at a 1:2 E:T ratio in growth medium without IL-2 to start the next round of tumor co-culture. Samples were taken for cell counting and T cell quantification at the end of each challenge every three days. GPC2-BBz served as a positive control while the untransduced T cell (UnT) was used as a negative control.

Molecule | cytotoxicity against SH-SY5Y compared with CAS70950-BBz, CAS72052-BBz and CAS72669-BBz [1] | CAR positive T cells percentage [2]
B1 | better cytotoxicity | 
B2 |  | gradual decline
B3 |  | gradual decline
B4 |  | gradual decline
B5 | better cytotoxicity | 
B6 |  | gradual decline
B7 | better cytotoxicity | 
